Measurements published in paper PMC5587394 (Structure (London, England : 1993), 2017).

Molecular target: FGF9^WT (human FGF9, residues 35-208) (human, UniProt P31371 35-208)
Assay: SPR

B1: FGFR1c^ecto/WT (human FGFR1c ectodomain, residues 141-365) (domain or fragment)
chain: TDNTKPNRMPVAPYWTSPEKMEKKLHAVPAAKTVKFKCPSSGTPNPTLRWLKNGKEFKPDHRIGGYKVRYATWSIIMDSVVPSDKGNYTCIVENEYGSINHTYQLDVVERSPHRPILQAGLPANKTVALGSNVEFMCKVYSDPQPHIQWLKHIEVNGSKIGPDNLPYVQILKTAGVNTTDKEMEVLHLRNVSFEDAGEYTCLAGNSIGLSHHSAWLTVLEALEER
- binding result: binds
